From patent US20240092919A1 (Ablynx, published 2024)
Numbering of substitutions follows the chain as printed.

T1: Cynomolgus TCR(AEA41865/AEA41866)-zipper protein (cynomolgus monkey)
T1 construct: also called cyTCR-zipper protein; cynoTCR zipper
T1 TCR alpha: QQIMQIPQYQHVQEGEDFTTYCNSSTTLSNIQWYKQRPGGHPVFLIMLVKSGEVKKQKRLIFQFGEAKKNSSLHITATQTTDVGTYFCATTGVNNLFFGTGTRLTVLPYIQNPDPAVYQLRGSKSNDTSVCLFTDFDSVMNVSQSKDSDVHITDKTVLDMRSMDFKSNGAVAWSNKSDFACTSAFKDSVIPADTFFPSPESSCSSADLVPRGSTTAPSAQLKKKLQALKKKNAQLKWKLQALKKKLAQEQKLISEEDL
T1 TCR beta: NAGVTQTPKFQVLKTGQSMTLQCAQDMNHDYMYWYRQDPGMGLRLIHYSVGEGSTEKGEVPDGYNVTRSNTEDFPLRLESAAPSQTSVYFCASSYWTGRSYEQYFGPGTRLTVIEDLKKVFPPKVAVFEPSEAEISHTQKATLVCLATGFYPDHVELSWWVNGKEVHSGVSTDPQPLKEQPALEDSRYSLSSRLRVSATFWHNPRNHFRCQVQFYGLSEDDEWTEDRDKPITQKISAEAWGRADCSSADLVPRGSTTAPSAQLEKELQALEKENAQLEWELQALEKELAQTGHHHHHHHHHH

B1: T017000354 (VHH)
VHH: EVQLVESGGGVVQPGGSLRLSCVASGAVHKINFYGWYRQAPGKEREKVAHISIGDQTDYADSAKGRFTISRDESKNMVYLQMNSLRPEDTALYFCRAMSRIWPYDYWGQGTLVTVSS
B2: T017000374 (VHH)
VHH: B1 VHH with G26Y, A27D, K30Q, R100K
B3: T017000359 (VHH)
VHH: B1 VHH with G26W, A27D, K30Q, M98F, R100K, W102Y
B4: T017000370 (VHH)
VHH: B1 VHH with K30Q
B5: T017000377 (VHH)
VHH: B1 VHH with G26W, A27D, W102Y
B6: T017000362 (VHH)
VHH: B1 VHH with G26Y, A27D, R100K
B7: T017000357 (VHH)
VHH: B1 VHH with A27Y, K30Q, I31L
B8: T017000367 (VHH)
VHH: B1 VHH with A27Y, Y34L
B9: T017000372 (VHH)
VHH: B1 VHH with A27Y, W102Y
B10: T017000384 (VHH)
VHH: B1 VHH with K30Q, I31L
B11: T017000361 (VHH)
VHH: B1 VHH with A27S, Y34L
B12: T017000371 (VHH)
VHH: B1 VHH with A27Y
B13: T017000365 (VHH)
VHH: B1 VHH with I31L, Y34L, Y106W
B14: T017000364 (VHH)
VHH: B1 VHH with K30Q, Y34L
B15: T017000381 (VHH)
VHH: B1 VHH with Y34L, W102Y
B16: T017000382 (VHH)
VHH: B1 VHH with A27S, W102Y, Y106W
B17: T017000355 (VHH)
VHH: B1 VHH with G26W, A27D, K30Q, I31L
B18: T017000363 (VHH)
VHH: B1 VHH with A27S, W102Y
B19: T017000360 (VHH)
VHH: B1 VHH with G26W, A27S, K30Q, I31L, R100K, W102Y, Y106W
B20: T017000368 (VHH)
VHH: B1 VHH with G26W, A27D, K30Q, W102Y
B21: T017000369 (VHH)
VHH: B1 VHH with A27S, I31L, Y106W
B22: T017000373 (VHH)
VHH: B1 VHH with A27S, I31L, Y34L
B23: T017000379 (VHH)
VHH: B1 VHH with G26W, A27D, K30Q, R100K
B24: T017000356 (VHH)
VHH: B1 VHH with A27S, I31L
B25: T017000378 (VHH)
VHH: B1 VHH with G26W, A27D, R100K

Biological target: T1, Cynomolgus …
Assay: SPR ProteOn off-rate screen
Description: Unique ISVD clones, i.e. clones with a unique sequence, were subsequently selected and screened to determine their off-rate. To this purpose, the ISVD containing periplasmic extracts were screened on huTCR-zipper and cyTCR-zipper protein by SPR on a ProteOn XPR36 instrument. The zipper proteins were immobilized on a GLC sensor chip (between 4300 and 5100RU) via amine coupling chemistry, using EDC/sulfo-NHS for activation of the carboxyl groups on the chip surface (running buffer: HBS-EP+, pH7.4). Periplasmic extracts were injected at 1/10 dilution for 2 min (at a flow rate of 45 μL/min) and dissociation was followed for 900 s. A pulse of 100 s of 3 M MgCl2 at 45 μL/min was used for regeneration. […] Processed sensorgrams were fitted with the Langmuir model (1:1 interaction) using ProteOn Manager 3.1.0 (Version 3.1.0.6) software.

First: B1
Second: B2
The koff of the first is 1.7-fold higher: 0.000875 s⁻¹ for the first, 0.000523 s⁻¹ for the second.

Compared with B3, B4 is 5.4-fold higher in koff: 0.000401 s⁻¹ for the first, 0.00215 s⁻¹ for the second.

Going from B5 to B6, the koff falls from 0.00214 s⁻¹ to 0.000577 s⁻¹ (3.7-fold).

Going from B7 to B8, the koff falls from 0.00251 s⁻¹ to 0.0011 s⁻¹ (2.3-fold).

First: B9
Second: B10
The koff of the first is 3.1-fold lower: 0.00122 s⁻¹ for the first, 0.00383 s⁻¹ for the second.

Going from B11 to B12, the koff falls from 0.000982 s⁻¹ to 0.000612 s⁻¹ (1.6-fold).

B13 and B14 are within 1.5-fold of each other in koff: 0.00201 s⁻¹ for the first, 0.0026 s⁻¹ for the second.

B15 and B16 are within 1.5-fold of each other in koff: 0.00216 s⁻¹ for the first, 0.00289 s⁻¹ for the second.

B17 and B18 are within 1.5-fold of each other in koff: 0.00145 s⁻¹ for the first, 0.00127 s⁻¹ for the second.

Going from B19 to B20, the koff falls from 0.00243 s⁻¹ to 0.00129 s⁻¹ (1.9-fold).

First: B21
Second: B22
The koff of the first is 1.7-fold higher: 0.00155 s⁻¹ for the first, 0.000913 s⁻¹ for the second.

Going from B23 to B24, the koff rises from 0.000152 s⁻¹ to 0.00089 s⁻¹ (5.9-fold).

In the case of B25, the koff is reported as 0.000249 s⁻¹.
